The target in experiment [1] is AgaR2 (SSU05_0447) protein from Streptococcus suis (Streptococcus suis). Put plainly: cross-linking; purified protein (~5 mg/mL) in 15 uL incubated with EGS cross-linker (0, 2.5, 5, 10, 20 umol/L for AgaR2; 0.1, 0.2, 0.5, 1.0, 2.5, 5, 10, 20 umol/L for AgaR1) for 1 h at room temperature; 12% SDS-PAGE, Coomassie staining.
In experiment [2] the target is AgaR1 (SSU05_0448) protein from Streptococcus suis (Streptococcus suis). The description is as above.

One may read the stoichiometry N as the number of molecules, sites or subunits per partner or assembly. “AgaR2 (SSU05_0447) protein from Streptococcus suis (natural protein)” gave a stoichiometry N in experiment [1] of 2. “AgaR1 (SSU05_0448) protein from Streptococcus suis (natural protein)” had a stoichiometry N in experiment [2] of 2.

The values above are taken from paper PMC4694137.
